Measurements reported in PMC9400903, “A Versatile Synthetic Affinity Probe Reveals Inhibitory Synapse Ultrastructure and Brain Connectivity**” (Angewandte Chemie (International Ed. in English), 2022).
Where no end group is shown, it is not given here.

T1: eGFP-gephyrin (UniProt Q03555 1-768)
T1 construct: gephyrin; source: COS-7 cells, expressed, cells fixed; 'mammalian cells' for the test of SyliteCy3
T1 sequence (looked up): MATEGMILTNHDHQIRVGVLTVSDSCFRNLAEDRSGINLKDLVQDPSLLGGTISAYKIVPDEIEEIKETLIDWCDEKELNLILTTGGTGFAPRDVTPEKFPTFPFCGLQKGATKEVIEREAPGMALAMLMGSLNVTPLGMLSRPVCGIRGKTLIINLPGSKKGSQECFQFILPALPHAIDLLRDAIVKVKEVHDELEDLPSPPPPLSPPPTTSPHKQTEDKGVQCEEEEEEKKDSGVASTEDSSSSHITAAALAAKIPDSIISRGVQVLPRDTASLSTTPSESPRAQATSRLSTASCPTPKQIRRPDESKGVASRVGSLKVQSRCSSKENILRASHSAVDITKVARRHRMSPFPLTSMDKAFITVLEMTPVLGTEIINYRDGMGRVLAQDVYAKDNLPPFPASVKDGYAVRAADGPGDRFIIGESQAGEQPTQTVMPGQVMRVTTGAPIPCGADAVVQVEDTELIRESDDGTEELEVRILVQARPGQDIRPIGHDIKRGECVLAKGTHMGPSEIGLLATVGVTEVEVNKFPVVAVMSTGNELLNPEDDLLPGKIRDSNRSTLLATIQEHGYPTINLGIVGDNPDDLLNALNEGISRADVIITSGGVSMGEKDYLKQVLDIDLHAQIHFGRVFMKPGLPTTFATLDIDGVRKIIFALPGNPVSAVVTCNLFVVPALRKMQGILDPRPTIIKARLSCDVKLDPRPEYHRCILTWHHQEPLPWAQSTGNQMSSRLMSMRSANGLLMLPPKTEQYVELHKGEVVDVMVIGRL

B1: Sylite (peptide)
chain 1: YSIVGSYPRKC(maleimide‑Cy5)
chain 2: YSIVGSYPR
modifications: also: two chains joined via linker, linkage not given here
B2: SyliteM (peptide)
chain: FSIVGSYPRRRRRRRRR
modifications: also: fluorophore

What was measured:
SyliteM = target: B2; experiment: ITC; Sylite or SyliteM titrated with purified gephyrin E domain; N=3; details: both partners purified
Sylite = target: B1; experiment: as above; details: both partners purified
eGFP-gephyrin = target: T1, eGFP-gephyrin; experiment: immunostaining of cells or tissue; fixed COS-7 cells expressing eGFP-gephyrin or eGFP alone, stained with the fluorescent probes (50 nM Sylite); probe signal at eGFP-rich regions; details: one partner purified

| Binder | Kd (SyliteM) [µM] | Kd (Sylite) [µM] | stoichiometry N (Sylite) | signal-to-background ratio (SBR) (eGFP-gephyrin) |
| --- | --- | --- | --- | --- |
| gephyrin E domain (domain or fragment) SSKENILRASHSAVDITKVARRHRMSPFPLTSMDKAFITVLEMTPVLGTEIINYRDGMGRVLAQDVYAKDNLPPFPASVKDGYAVRAADGPGDRFIIGESQAGEQPTQTVMPGQVMRVTTGAPIPCGADAVVQVEDTELIRESDDGTEELEVRILVQARPGQDIRPIGHDIKRGECVLAKGTHMGPSEIGLLATVGVTEVEVNKFPVVAVMSTGNELLNPEDDLLPGKIRDSNRSTLLATIQEHGYPTINLGIVGDNPDDLLNALNEGISRADVIITSGGVSMGEKDYLKQVLDIDLHAQIHFGRVFMKPGLPTTFATLDIDGVRKIIFALPGNPVSAVVTCNLFVVPALRKMQGILDPRPTIIKARLSCDVKLDPRPEYHRCILTWHHQEPLPWAQSTGNQMSSRLMSMRSANGLLMLPPKTEQYVELHKGEVVDVMVIGRL | 0.205 | 0.0175 | 2 gephyrin E domain per probe |  |
| B1 |  |  |  | 492 |
| B2 |  |  |  | 36 |
